Assay results: patent US20220389073A1, “Novel Mini-Insulin With Extended C-Terminal A Chain” (University of Utah Research Foundation, priority 2019, published 2022)

Columns and labels:
[1] = known property of shortened human insulin; cited from earlier work
[2] = target: hIR (Homo sapiens, UniProt P06213); test: hIR activation / insulin signaling activation; assay type: cell-based

Substance	oligomeric state [1]	hIR activation activity compared with enzymatically synthetic DOI [2]	potency, fold weaker than human insulin ([2]; relative to human insulin)	potency for hIR activation compared with human insulin ([2]; FIG. 7)
Des-octapeptide (B23-30) human insulin [DOI]	monomeric	same	1,000 fold	–
quadruple DOI mutant: DOI with A8 His, A9 Arg, B10 Glu, B20 Tyr; SEQ ID NO: 12 and SEQ ID NO: 3	–	–	–	comparable to that of human insulin
